Data reported in US20140235701, “NGF APTAMER AND APPLICATION THEREOF” (RIBOMIC INC., published 2014).

T1: NT-4 (neurotrophin-4) (Homo sapiens, UniProt P34130 P34130:81-210)
T1 sequence: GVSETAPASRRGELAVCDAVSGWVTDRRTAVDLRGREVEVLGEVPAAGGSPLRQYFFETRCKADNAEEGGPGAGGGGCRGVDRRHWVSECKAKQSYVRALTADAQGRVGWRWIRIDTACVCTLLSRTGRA


Assays:
Conditions in all cases: tags: R&D Systems; chain copies: 2
[1] = target: T2, NGF (nerve growth factor) (Homo sapiens, UniProt P01138 P01138:122-241); assay: cell_activity; neurite; TF-1 >0.1
T2 sequence (P01138 122-241, one chain of several): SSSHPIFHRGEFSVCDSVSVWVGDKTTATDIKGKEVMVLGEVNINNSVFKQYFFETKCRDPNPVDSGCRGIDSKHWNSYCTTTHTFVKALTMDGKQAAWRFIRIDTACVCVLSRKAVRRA

[2] = target: T2, NGF (nerve growth factor); assay: cell_activity; neurite; TF-1 >1
NT-4 (neurotrophin-4) = target: T1, NT-4 (neurotrophin-4); assay: cell_activity; TF-1
From the text: Using TF-1 cells, whether NGF aptamer inhibits BDNF, NT-3, NT-4 was examined. Human receptor genes (TrkB, TrkC, p75) for respective neurotrophic factors were introduced into TF-1 cells (ATCC Number: CRL-2003), which is a human erythroleukemic cell line, by using a retrovirus vector to give cells that highly express these receptors stably. TF-1 cells introduced with TrkB and p75 were used for the evaluation of inhibitory activity against BDNF, TF-1 cells introduced with TrkC and p75 were used for the evaluation against NT-3, and TF-1 cells introduced with TrkB alone were used for the evaluation against NT-4. These cells were suspended in an RPMI-1640 medium containing 20% fetal bovine serum, and seeded in a white 96 well flat-bottom plate at 1000 cells (50 μL) per well. Thereto was added a mixed solution 50 μL of human BDNF (final concentration 0.074 nM) or NT-3 (final concentration 0.074 nM) or NT-4 (final concentration 0.071 nM) and the aptamer (final concentration 1 μM-0.01 nM), which had been pre-reacted at room temperature for 30 min in a serum-free RPMI-1640 medium, 3 days later, 100 μL of CellTiter-Glo reagent for CellTiter-Glo Luminescent Cell Viability Assay (manufactured by Promega) was added to each well, chemiluminescence was measured by a microplate reader. With the amount of luminescence per well obtained by the addition of BDNF or NT-3 or NT-4 alone and culture of the cells for 3 days as inhibitory activity 0%, and that of the well obtained by culture for 3 days without addition of BDNF or NT-3 or NT-4 as inhibitory activity 100%, the inhibitory activity of the aptamer was calculated from the amount of luminescence per well obtained by culturing with the addition of BDNF or NT-3 or NT-4 and the aptamer in mixture. When the inhibitory activity was 0 or below, ‘0%’ is indicated. The 50% inhibitory concentration (IC₅₀) was determined from the concentrations at two, above and below points sandwiching the 50% inhibitory activity. An IC₅₀ value indicated as “>X” means that the inhibitory activity was not more than 50% when the indicated concentration X was the maximum measured concentration. N.D. means not measured.

[3] = target: T2, NGF (nerve growth factor); assay: cell_activity; neurite; TF-1 <0.1

Row | Binder | IC50 [1] [nM] | IC50 [3] [nM] | further results
1 | GGGUCCUGGAUAAGAGUUUCCGUCUCGUAUCCUGUUACCC (ssRNA, as 82(1) except 2'-OMe U33) [SEQ ID NO: 82(14)] | 0.294 |  | 
2 | GGGUCCUGGAUAAGAGUUUCCGUCUCGUAUCCUGUUACCC (ssRNA, as 82(1) except 2'-OMe U4,C6,U11,C20,C21,C26,U28,U30,C31,C32,U35,C38-40) [SEQ ID NO: 82(19)] | 0.291 |  | 
3 | GGGUCCUGGAUAAGAGUUUCCGUCUCGUAUCCUGUUACCC (ssRNA, as 82(25) except dU19) [SEQ ID NO: 82(39)] | 0.256 |  | 
4 | GGGUCCUGGAUAAGAGUTUCCGUCUCGUAUCCUGUUACCC (ssRNA, as 82(1) except dT18) [SEQ ID NO: 157] | 0.299 |  | 
5 | GGGUCCUGGAUAAGAGUUUCCGUCUCGUAUCCUGUUACCC (ssRNA, as 82(25) except dU18) [SEQ ID NO: 82(38)] | 0.295 |  | 
6 | GGGUCCUGGAUAAGAGUUUCCGUCUCGUAUCCUGUUACCC (ssRNA, as 82(1) except dC20) [SEQ ID NO: 82(30)] | 0.244 |  | 
7 | GGGUCCUGGAUAAGAGUUUCCGUCUCGUAUCCUGUUACCC (ssRNA, as 82(25) except 2'-OMe A13) [SEQ ID NO: 82(43)] | 0.088 |  | 
8 | GGGUCCUGGAUAAGAGUUUCCGUCUCGUAUCCUGUUACCC (ssRNA, as 82(1) except dC24) [SEQ ID NO: 82(31)] | 0.276 |  | 
9 | GGGUCCUGGAUAAGAGUUUCCGUCUCGUAUCCUGUTACCC (ssRNA, as 82(1) except dT36) [SEQ ID NO: 159] | 0.264 |  | 
10 | GGGUCCUGUGGAAGAGUUUCCGUCUCGUCCACUGUUACCC (ssRNA, 2'-F C/U, dA, 2'-OH G) [SEQ ID NO: 89] |  |  | IC50 [2]: 0.959 nM
11 | GGGUCCUGAGCAAGAGUUUCCGUCUCAUGCUCUGUUACCC (ssRNA, 2'-F C/U, dA, 2'-OH G) [SEQ ID NO: 102] |  |  | IC50 [2]: 0.908 nM
12 | GGGUCCUGUGGAAGAGUUUCCGUCUCGUCCACUGUUACCC (ssRNA, as 89(2) plus 2'-OMe U9,G10,G11,C29,C30) [SEQ ID NO: 89(4)] |  | < 0.1 | IC50 (NT-4 (neurotrophin-4)): 271 nM
13 | GGGUCCUGUGGAAGAGUUUCCGUCUCGUCCACUGUUACCC (ssRNA, 2'-OMe G1-3,C6,G14,G16,C21,G22,U23,C26,G27,U28,C32,U35,C38-40; other C/U 2'-F, G 2'-OH, dA; 5',3' idT) [SEQ ID NO: 89(2)] |  | 0.103 | 
14 | GGGUCCUGUUCAAGAGUUUCCGUCUCGUGAACUGUUACCC (ssRNA, 2'-OMe G1-3,U4,C6,G14,G16,C21,G22,U23,C26,G27,U28,C32,U35,C38-40; other C/U 2'-F, G 2'-OH, dA; 5',3' idT) [SEQ ID NO: 88(3)] |  | 0.106 | 
15 | GGGUCCUGUUCAAGAGUUUCCGUCUCGUGAACUGUUACCC (ssRNA, as 88(3) plus 2'-OMe U9,U10,C11,G29) [SEQ ID NO: 88(4)] |  | 0.111 | IC50 (NT-4 (neurotrophin-4)): 300 nM
16 | GGGUCCUGUUCAAGAGUUUCCGUCUCGUGAACUGUUACCC (ssRNA, 2'-OMe G1-3,C38-40; other C/U 2'-F, G 2'-OH, dA; 5',3' idT) [SEQ ID NO: 88(2)] |  | 0.241 | 
17 | GGGUCCUGUGGAAGAGUUUCCGUCUCGUCCACUGUUACCC (ssRNA, as 89(2) plus 2'-OMe G10,G11) [SEQ ID NO: 89(3)] |  | 0.122 | 
